Results: PMC8303780, “Mutational Analysis of Redβ Single Strand Annealing Protein: Roles of the 14 Lysine Residues in DNA Binding and Recombination In Vivo”

T1: Redβ WT (bacteriophage λ, UniProt P03698 1-261)
T1 sequence: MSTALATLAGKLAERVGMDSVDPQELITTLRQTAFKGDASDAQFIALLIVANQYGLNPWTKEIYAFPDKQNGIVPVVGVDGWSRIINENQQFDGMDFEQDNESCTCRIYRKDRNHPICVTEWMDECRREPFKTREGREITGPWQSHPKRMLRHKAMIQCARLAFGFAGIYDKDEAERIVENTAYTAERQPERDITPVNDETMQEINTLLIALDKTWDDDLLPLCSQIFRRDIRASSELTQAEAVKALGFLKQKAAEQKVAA

T2: Redβ K11A K11A (bacteriophage λ) (UniProt P03698)
T2 sequence: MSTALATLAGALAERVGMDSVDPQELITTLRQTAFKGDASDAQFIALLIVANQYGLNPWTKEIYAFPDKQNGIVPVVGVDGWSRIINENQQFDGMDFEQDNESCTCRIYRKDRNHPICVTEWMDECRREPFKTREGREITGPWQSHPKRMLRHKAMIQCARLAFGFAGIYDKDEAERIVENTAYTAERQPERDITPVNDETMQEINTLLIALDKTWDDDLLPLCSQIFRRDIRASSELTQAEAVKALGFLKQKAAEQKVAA

T3: Redβ K172A K172A (bacteriophage λ) (UniProt P03698)
T3 sequence: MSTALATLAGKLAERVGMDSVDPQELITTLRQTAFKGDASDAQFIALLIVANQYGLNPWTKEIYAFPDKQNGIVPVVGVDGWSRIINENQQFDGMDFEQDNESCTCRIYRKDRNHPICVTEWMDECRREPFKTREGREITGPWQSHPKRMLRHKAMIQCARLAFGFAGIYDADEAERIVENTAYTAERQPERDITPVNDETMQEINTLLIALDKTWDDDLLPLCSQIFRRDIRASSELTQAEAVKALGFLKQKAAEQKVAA

T4: Redβ K214A K214A (bacteriophage λ) (UniProt P03698)
T4 sequence: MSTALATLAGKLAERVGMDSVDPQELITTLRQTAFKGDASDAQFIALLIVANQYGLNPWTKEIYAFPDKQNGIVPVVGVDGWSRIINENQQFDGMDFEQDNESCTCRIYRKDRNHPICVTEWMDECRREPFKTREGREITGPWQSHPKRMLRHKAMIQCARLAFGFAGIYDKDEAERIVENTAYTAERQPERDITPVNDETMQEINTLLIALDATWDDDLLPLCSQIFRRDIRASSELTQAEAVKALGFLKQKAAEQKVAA

T5: Redβ K251A K251A (bacteriophage λ) (UniProt P03698)
T5 sequence: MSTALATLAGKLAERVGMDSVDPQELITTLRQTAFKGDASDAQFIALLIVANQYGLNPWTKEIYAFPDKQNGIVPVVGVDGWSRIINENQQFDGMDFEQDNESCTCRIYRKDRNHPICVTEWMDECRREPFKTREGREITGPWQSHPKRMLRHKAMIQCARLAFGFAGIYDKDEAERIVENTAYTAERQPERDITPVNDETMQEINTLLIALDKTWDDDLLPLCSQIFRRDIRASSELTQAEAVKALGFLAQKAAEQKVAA

T6: Redβ K61A K61A (bacteriophage λ) (UniProt P03698)
T6 sequence: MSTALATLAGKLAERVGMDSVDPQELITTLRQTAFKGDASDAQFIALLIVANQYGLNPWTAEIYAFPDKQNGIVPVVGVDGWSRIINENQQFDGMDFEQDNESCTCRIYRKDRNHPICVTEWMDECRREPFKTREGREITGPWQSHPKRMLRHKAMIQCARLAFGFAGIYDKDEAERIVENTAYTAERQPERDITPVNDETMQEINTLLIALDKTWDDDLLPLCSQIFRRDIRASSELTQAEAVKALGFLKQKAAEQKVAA

T7: Redβ K253A (bacteriophage λ, UniProt P03698 1-261, K253A)
T7 sequence: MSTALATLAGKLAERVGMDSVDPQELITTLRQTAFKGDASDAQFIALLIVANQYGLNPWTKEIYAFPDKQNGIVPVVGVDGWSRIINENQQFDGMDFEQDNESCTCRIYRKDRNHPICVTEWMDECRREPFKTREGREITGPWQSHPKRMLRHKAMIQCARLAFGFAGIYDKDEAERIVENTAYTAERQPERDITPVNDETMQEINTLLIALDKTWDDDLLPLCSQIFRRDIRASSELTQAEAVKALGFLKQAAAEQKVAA

T8: Redβ K245A (bacteriophage λ, UniProt P03698 1-261, K245A)
T8 sequence: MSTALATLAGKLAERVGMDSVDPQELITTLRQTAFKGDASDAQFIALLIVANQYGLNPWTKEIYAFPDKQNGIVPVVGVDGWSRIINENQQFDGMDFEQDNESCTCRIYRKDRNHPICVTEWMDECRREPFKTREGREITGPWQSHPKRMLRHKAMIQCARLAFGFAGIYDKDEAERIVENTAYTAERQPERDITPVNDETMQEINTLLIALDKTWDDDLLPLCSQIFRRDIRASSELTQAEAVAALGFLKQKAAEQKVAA

B1: annealed duplex of Cy3 and Cy5 50-mers, strands added sequentially (dsDNA)
DNA 1: GCGGATGGCTTAGAGCAGAATCGCCCTGCATAGCTCGATTTTTGCGGATG
DNA 2: CCATCCGCAAAAATCGAGCTATGCAGGGCGATTCTGCTCTAAGCCATCCG

Key:
Redβ WT = biological target: T1, Redβ WT; assay: fluorescence anisotropy; conditions: Anisotropy: 50 mM Tris-HCl pH 7.5, 1 mM DTT, 0.1 mg/mL BSA, 10 nM FAM48, 23 °C (Kd per monomer), gel assay: 10 µM Redβ, 50 µM nt of each oligo, PBS, 37 °C
[1] = biological target: T2, Redβ K11A K11A (bacteriophage λ); assay: fluorescence anisotropy; conditions: Anisotropy: 50 mM Tris-HCl pH 7.5, 1 mM DTT, 0.1 mg/mL BSA, 10 nM FAM48, 23 °C (Kd per monomer), gel assay: 10 µM Redβ, 50 µM nt of each oligo, PBS, 37 °C
[2] = biological target: T3, Redβ K172A K172A (bacteriophage λ); assay: fluorescence anisotropy; conditions: Anisotropy: 50 mM Tris-HCl pH 7.5, 1 mM DTT, 0.1 mg/mL BSA, 10 nM FAM48, 23 °C (Kd per monomer), gel assay: 10 µM Redβ, 50 µM nt of each oligo, PBS, 37 °C
[3] = biological target: T4, Redβ K214A K214A (bacteriophage λ); assay: fluorescence anisotropy; conditions: Anisotropy: 50 mM Tris-HCl pH 7.5, 1 mM DTT, 0.1 mg/mL BSA, 10 nM FAM48, 23 °C (Kd per monomer), gel assay: 10 µM Redβ, 50 µM nt of each oligo, PBS, 37 °C
[4] = biological target: T5, Redβ K251A K251A (bacteriophage λ); assay: fluorescence anisotropy; conditions: Anisotropy: 50 mM Tris-HCl pH 7.5, 1 mM DTT, 0.1 mg/mL BSA, 10 nM FAM48, 23 °C (Kd per monomer), gel assay: 10 µM Redβ, 50 µM nt of each oligo, PBS, 37 °C
[5] = biological target: T6, Redβ K61A K61A (bacteriophage λ); assay: fluorescence anisotropy; conditions: Anisotropy: 50 mM Tris-HCl pH 7.5, 1 mM DTT, 0.1 mg/mL BSA, 10 nM FAM48, 23 °C (Kd per monomer), gel assay: 10 µM Redβ, 50 µM nt of each oligo, PBS, 37 °C
Redβ K253A = biological target: T7, Redβ K253A; assay: EMSA; strands added sequentially; Anisotropy: 50 mM Tris-HCl pH 7.5, 1 mM DTT, 0.1 mg/mL BSA, 10 nM FAM48, 23 °C (Kd per monomer); gel assay: 10 µM Redβ, 50 µM nt of each oligo, PBS, 37 °C, 1% agarose at 22 °C; conditions: protein: recombinant; tags: 6xHis removed by thrombin; residual N-terminal GSH; label: 5'-Cy3 and 5'-Cy5; complementary 50-mers; annealed by protein
Redβ K245A = biological target: T8, Redβ K245A; assay: as above; conditions: protein: recombinant; tags: 6xHis removed by thrombin; residual N-terminal GSH; label: 5'-Cy3 and 5'-Cy5; complementary 50-mers; annealed by protein

Row | Molecule | Kd (Redβ WT) | Kd [1] | Kd [2] | Kd [3] | Kd [4] | Kd [5] | binding result (Redβ K253A) | binding result (Redβ K245A)
1 | FAM48 48-mer ssDNA | 110 nM | 230 nM | 2600 nM | 310 nM | 190 nM | 390 nM | – | –
2 | B1 | – | – | – | – | – | – | binds | binds
